Assay [1] has as its target IRA homodimer (IRA-Luc/IRA-YFP) (UniProt P06213).
Assay [2] deals with IRB homodimer (IRB-Luc/IRB-YFP) (UniProt P06213).
In assay [3] the target is IRA/IGF1R hybrid receptor (IRA-Luc/IGF1R-YFP) (UniProt P06213).
Assay [4] deals with IRB/IGF1R hybrid receptor (IRB-Luc/IGF1R-YFP) (UniProt P06213).
Assay [5] deals with IRA homodimer (IRA-Luc/IRA-YFP) (UniProt P06213). This is another data set of the same source.
Assay [6] has as its target IRB homodimer (IRB-Luc/IRB-YFP) (UniProt P06213). The source holds these as a separate data set.
Assay [7] has as its target IRA/IGF1R hybrid receptor (IRA-Luc/IGF1R-YFP) (UniProt P06213). The source holds these as a separate data set.
Assay [8] addresses IRB/IGF1R hybrid receptor (IRB-Luc/IGF1R-YFP) (UniProt P06213). This is another data set of the same source.
The target in assay [9] is insulin receptor (IR), endogenous in MCF-7 and MDA-MB231 cells (human (endogenous in MCF-7 and MDA-MB231)) (UniProt P06213).

As for “Glargine metabolite M1 (A21Gly-insulin) (ligand)”, the EC50 of ligand-induced BRET (Luc/YFP on the two ß-subunits) of partially purified receptors, series with M1 and M2 in [1] was determined as 0.0167 µM; in [2], 0.00964 µM; in assay [3], 0.225 µM; in [4], 0.147 µM.
Taken in the same sequence, the figures for “Glargine metabolite M2 (A21Gly,B30desThr-insulin) (ligand)” were 0.0138 µM, 0.00631 µM, 0.315 µM and 0.169 µM.
As for “IGF1 (from UniProt P05019 49-118) (ligand)”, the EC50 of ligand-induced BRET (Luc/YFP on the two ß-subunits) of partially purified receptors, series with M1 and M2 is 0.0506 µM in [1], 0.13 µM in assay [2], 0.00423 µM in assay [3] and 0.00305 µM in assay [4]. In addition, the EC50 of ligand-induced BRET (Luc/YFP on the two ß-subunits) of partially purified receptors is 0.0344 µM in [5], 0.05 µM in assay [6], 0.00301 µM in assay [7] and 0.00287 µM in assay [8].
As for “detemir (B29Lys(e-tetradecanoyl),desB30)-insulin) (ligand)”, the EC50 of ligand-induced BRET (Luc/YFP on the two ß-subunits) of partially purified receptors was 0.00513 µM in assay [5], 0.00524 µM in [6], 0.335 µM in assay [7] and 0.175 µM in [8]. For the same substance, the EC50 of PIP3 production (BRET, Luc-Akt-PH and membrane YFP) in living MDA-MB231 cells in [9] stood at 0.0023 µM.
For “glulisine (B3Lys,B29Glu-insulin) (ligand)”, the EC50 of ligand-induced BRET (Luc/YFP on the two ß-subunits) of partially purified receptors was 0.00161 µM in assay [5], 0.00164 µM in assay [6], 0.183 µM in assay [7] and 0.107 µM in assay [8]. In assay [9], the EC50 of PIP3 production (BRET, Luc-Akt-PH and membrane YFP) in living MDA-MB231 cells was 0.00084 µM.
